From patent US20240261333A1, “NOVEL TARGETS FOR ENHANCING ANTI-TUMOR IMMUNITY” (THE BROAD INSTITUTE, INC., priority 2021, published 2024)

T1: B3GNT2 (Homo sapiens, UniProt Q9NY97)
T1 construct: The respective ORFs of candidate genes [CD274 (NM_014143), MCL1 (NM_021960), JUNB (NM_002229), and B3GNT2 (NM_006577)] were synthesized; expressed in transfected cells; host or cells: A375 melanoma cells (lentiviral ORF overexpression)
T1 sequence (Q9NY97 1-397): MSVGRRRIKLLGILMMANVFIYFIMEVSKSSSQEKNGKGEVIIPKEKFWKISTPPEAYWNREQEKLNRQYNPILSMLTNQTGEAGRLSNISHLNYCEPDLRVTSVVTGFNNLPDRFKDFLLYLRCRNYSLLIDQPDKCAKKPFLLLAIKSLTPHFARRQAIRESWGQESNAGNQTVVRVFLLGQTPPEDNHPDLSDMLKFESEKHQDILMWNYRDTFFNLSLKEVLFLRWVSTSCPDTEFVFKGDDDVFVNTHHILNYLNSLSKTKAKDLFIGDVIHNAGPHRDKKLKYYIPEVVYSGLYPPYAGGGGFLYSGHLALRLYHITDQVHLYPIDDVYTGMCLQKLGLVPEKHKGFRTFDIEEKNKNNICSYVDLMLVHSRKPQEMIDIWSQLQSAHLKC

B1: GANAB (protein)
chain: ITLAVDRSNFKTCEESSFCKRQRSIRPGLSPYRALLDSLQLGPDSLTVHLIHEVTKVLLVLELQGLQKNMTRFRIDELEPRRPRYRVPDVLVADPPIARLSVSGRDENSVELTMAEGPYKIILTARPFRLDLLEDRSLLLSVNARGLLEFEHQRAPRVSQGSKDPAEGDGAQPEETPRDGDKPEETQGKAEKDEPGAWEETFKTHSDSKPYGPMSVGLDFSLPGMEHVYGIPEHADNLRLKVTEGGEPYRLYNLDVFQYELYNPMALYGSVPVLLAHNPHRDLGIFWLNAAETWVDISSNTAGKTLFGKMMDYLQGSGETPQTDVRWMSETGIIDVFLLLGPSISDVFRQYASLTGTQALPPLFSLGYHQSRWNYRDEADVLEVDQGFDDHNLPCDVIWLDIEHADGKRYFTWDPSRFPQPRTMLERLASKRRKLVAIVDPHIKVDSGYRVHEELRNLGLYVKTRDGSDYEGWCWPGSAGYPDFTNPTMRAWWANMFSYDNYEGSAPNLFVWNDMNEPSVFNGPEVTMLKDAQHYGGWEHRDVHNIYGLYVHMATADGLRQRSGGMERPFVLARAFFAGSQRFGAVWTGDNTAEWDHLKISIPMCLSLGLVGLSFCGADVGGFFKNPEPELLVRWYQMGAYQPFFRAHAHLDTGRREPWLLPSQHNDIIRDALGQRYSLLPFWYTLLYQAHREGIPVMRPLWVQYPQDVTTFNIDDQYLLGDALLVHPVSDSGAHGVQVYLPGQGEVWYDIQSYQKHHGPQTLYLPVTLSSIPVFQRGGTIVPRWMRVRRSSECMKDDPITLFVALSPQGTAQGELFLDDGHTFNYQTRQEFLLRRFSFSGNTLVSSSADPEGHFETPIWIERVVIIGAGKPAAVVLQTKGSPESRLSFQHDPETSVLVLRKPGINVASDWSIHLR
B2: STAU1 (protein)
chain: MKLGKKPMYKPVDPYSRMQSTYNYNMRGGAYPPRYFYPFPVPPLLYQVELSVGGQQFNGKGKTRQAAKHDAAAKALRILQNEPLPERLEVNGRESEEENLNKSEISQVFEIALKRNLPVNFESFPLKQVARESGPPHMKNFVTKVSVGEFVGEGEGKSKKISKKNAAIAVLEELKKLPPLPAVERVKPRIKKKTKPIVKPQTSPEYGQGINPISRLAQIQQAKKEKEPEYTLLTERGLPRRREFVMQVKVGNHTAEGTGTNKKVAKRNAAENMLEILGFKVPQAQPTKPALKSEEKTPIKKPGDGRKVTFFEPGSGDENGTSNKEDEFRMPYLSHQQLPAGILPMVPEVAQAVGVSQGHHTKDFTRAAPNPAKATVTAMIARELLYGGTSPTAETILKNNISSGHVPHGPLTRPSEQLDYLSRVQGFQVEYKDFPKNNKNEFVSLINCSSQPPLISHGIGKDVESCHDMAALNILKLLSELDQQSTEMPRTGNGPMSVCGRC
B3: PSMB6 (protein)
chain: TTIMAVQFDGGVVLGADSRTTTGSYIANRVTDKLTPIHDRIFCCRSGSAADTQAVADAVTYQLGFHSIELNEPPLVHTAASLFKEMCYRYREDLMAGIIIAGWDPQEGGQVYSVPMGGMMVRQSFAIGGSGSSYIYGYVDATYREGMTKEECLQFTANALALAMERDGSSGGVIRLAAIAESGVERQVLLGDQIPKFAVATLPPA
B4: PJA2 (protein)
chain: SQYTEKEPAAMDQESGKAVWPKPAGGYQTITGRRYGRRHAYVSFKPCMTRHERSLGRAGDDYEVLELDDVPKENSSGSSPLDQVDSSLPSEPIFEKSETEIPTCGSALNQTTESSQSFVAVHHSEEGRDTLGSSTNLHNHSEGEYIPGACSASSVQNGIALVHTDSYDPDGKHGEDNDHLQLSAEVVEGSRYQESLGNTVFELENREAEAYTGLSPPVPSFNCEVRDEFEELDSVPLVKSSAGDTEFVHQNSQEIQRSSQDEMVSTKQQNNTSQERQTEHSPEDAACGPGHICSEQNTNDREKNHGSSPEQVVRPKVRKLISSSQVDQETGFNRHEAKQRSVQRWREALEVEESGSDDLLIKCEEYDGEHDCMFLDPPYSRVITQRETENNQMTSESGATAGRQEVDNTFWNGCGDYYQLYDKDEDSSECSDGEWSASLPHRFSGTEKDQSSSDESWETLPGKDENEPELQSDSSGPEEENQELSLQEGEQTSLEEGEIPWLQYNEVNESSSDEGNEPANEFAQPAFMLDGNNNLEDDSSVSEDLDVDWSLFDGFADGLGVAEAISYVDPQFLTYMALEERLAQAMETALAHLESLAVDVEVANPPASKESIDGLPETLVLEDHTAIGQEQCCPICCSEYIKDDIATELPCHHFFHKPCVSIWLQKSGTCPVCRRHFPPAVIEASAAPSSEPDPDAPPSNDSIAEAP
B5: STAU2 (protein)
chain: MANPKEKTAMCLVNELARFNRVQPQYKLLNERGPAHSKMFSVQLSLGEQTWESEGSSIKKAQQAVANKALTESTLPKPVQKPPKSNVNNNPGSITPTVELNGLAMKRGEPAIYRPLDPKPFPNYRANYNFRGMYNQRYHCPVPKIFYVQLTVGNNEFFGEGKTRQAARHNAAMKALQALQNEPIPERSPQNGESGKDVDDDKDANKSEISLVFEIALKRNMPVSFEVIKESGPPHMKSFVTRVSVGEFSAEGEGNSKKLSKKRAATTVLQELKKLPPLPVVEKPKLFFKKRPKTIVKAGPEYGQGMNPISRLAQIQQAKKEKEPDYVLLSERGMPRRREFVMQVKVGNEVATGTGPNKKIAKKNAAEAMLLQLGYKASTNLQDQLEKTGENKGWSGPKPGFPEPTNNTPKGILHLSPDVYQEMEASRHKVISGTTLGYLSPKDMNQPSSSFFSISPTSNSSATIARELLMNGTSSTAEAIGLKGSSPTPPCSPVQPSKQLEYLARIQGFQAALSALKQFSEQGLDPIDGAMNIEKGSLEKQAKHLREKADNNQAPPGSIAQDCKKSNSAV
B6: ERP44 (protein)
chain: EITSLDTENIDEILNNADVALVNFYADWCRFSQMLHPIFEEASDVIKEEFPNENQVVFARVDCDQHSDIAQRYRISKYPTLKLFRNGMMMKREYRGQRSVKALADYIRQQKSDPIQEIRDLAEITTLDRSKRNIIGYFEQKDSDNYRVFERVANILHDDCAFLSAFGDVSKPERYSGDNIIYKPPGHSAPDMVYLGAMTNFDVTYNWIQDKCVPLVREITFENGEELTEEGLPFLILFHMKEDTESLEIFQNEVARQLISEKGTINFLHADCDKFRHPLLHIQKTPADCPVIAIDSFRHMYVFGDFKDVLIPGKLKQFVFDLHSGKLHREFHHGPDPTDTAPGEQAQDVASSPPESSFQKLAPSEYRYTLLRDRDEL
B7: TRAFD1 (protein)
chain: AEFLDDQETRLCDNCKKEIPVFNFTIHEIHCQRNIGMCPTCKEPFPKSDMETHMAAEHCQVTCKCNKKLEKRLLKKHEETECPLRLAVCQHCDLELSILKLKEHEDYCGARTELCGNCGRNVLVKDLKTHPEVCGREGEEKRNEVAIPPNAYDESWGQDGIWIASQLLRQIEALDPPMRLPRRPLRAFESDVFHNRTTNQRNITAQVSIQNNLFEEQERQERNRGQQPPKEGGEESANLDFMLALSLQNEGQASSVAEQDFWRAVCEADQSHGGPRSLSDIKGAADEIMLPCEFCEELYPEELLIDHQTSCNPSRALPSLNTGSSSPRGVEEPDVIFQNFLQQAASNQLDSLMGLSNSHPVEESIIIPCEFCGVQLEEEVLFHHQDQCDQRPATATNHVTEGIPRLDSQPQETSPELPRRRVRHQGDLSSGYLDDTKQETANGPTSCLPPSRPINNMTATYNQLSRSTSGPRPGCQPSSPCVPKLSNSDSQDIQGRNRDSQNGAIAPGHVSVIRPPQNLYPENIVPSFSPGPSGRYGASGRSEGGRNSRVTPAAANYRSRTAKAKPSKQQGAGDAEEEEEE

target: T1, B3GNT2; experiment: Co-IP of FLAG-tagged B3GNT2 followed by mass spectrometry; type: cell-based; parameters: C-term IgG / C-term flag: unit not given here; settings: Co-IP with FLAG antibody, C-terminally FLAG-tagged B3GNT2; mass spectrometry count, unit not given
In short: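 Co-purifying proteins were identified by fractionated nano-LC–MS/MS on an Orbitrap Elite, run data-dependent. Beforehand, lysates in 1% Triton X-100/HEPES buffer were incubated overnight at 4° C with anti-FLAG or […] and pulled down on Protein A/G magnetic beads for 4 h. Duplicate biological replicates.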

C-term flag | Molecule
8 | B1
6 | B2
3 | B3
2 | B4
2 | B5
2 | B6
2 | B7

same assay, conditions: Co-IP with FLAG antibody, N-terminally FLAG-tagged B3GNT2; mass spectrometry count, unit not given

N-term FLAG | Molecule
0 | B1
2 | B2
5 | B3
0 | B4
0 | B5
0 | B6
0 | B7

same assay, conditions: Co-IP with IgG control antibody, C-terminally FLAG-tagged B3GNT2; mass spectrometry count, unit not given

C-term IgG | Molecule
0 | B1
0 | B2
0 | B3
0 | B4
0 | B5
0 | B6
0 | B7

same assay, conditions: Co-IP with IgG control antibody, N-terminally FLAG-tagged B3GNT2; mass spectrometry count, unit not given

N-term IgG | Molecule
0 | B1
0 | B2
0 | B3
0 | B4
0 | B5
0 | B6
0 | B7
